We go through one molecule from patent US20190144550A1 (Pfizer, published 2019).

Assay [1] has as its target T1, Monomeric 8-histidine tagged human EGFRvIII extracellular domain (human, UniProt P00533 298-645).
T1 construct: Analyte in all SPR assays; not shown: 8-histidine tag
The experiment in a line: SPR, captured by anti-human Fc, 25 C; 25 C.

The target of assay [2] is T1, Monomeric 8-histidine tagged human …. The experiment in a line: SPR, captured by anti-human Fc, 25 C. The text has this: (§1) Anti-EGFRvII mouse (m) antibody, m62G7, generated from hybridomas was sequenced and subcloned into suitable vectors for expression as murine-human chimeric antibodies. The CDRs of mouse antibody m62G7 were grafted onto human framework and expressed as human IgG1 recombinant antibody, h62G7. Affinity variants of h62G7 were made by introducing mutations in the CDRs of the heavy and light chains. The affinities of recombinant anti-EGFRvIII chimeric antibody m62G7 and humanized h62G7 antibodies were measured on a surface plasmon resonance Biacore™ T200 biosensor equipped with a research-grade anti-human Fc coupled CM4 sensor chip (GE Healthcare Inc., Piscataway, N.J.). Anti-EGFRvII antibodies were then captured by anti-human Fc. Monomeric 8-histidine tagged human EGFRvIII extracellular domain was then injected as the analyte at 10-fold dilution series with top concentration at 1000 nM. Affinity of anti-EGFRvIII antibodies towards human EGFRvIII was measured at both 25° C. and 37° C.
(Surface plasmon resonance follows binding to a sensor surface in real time, without labels.)

The target is the same in assay [3]. Nature of the assay: SPR, captured by anti-human Fc, 37 C.
From the text: as §1

Assay [4] concerns the target T2, 8-histidine tagged recombinant wild-type protein EGFRwt (UniProt P00533 25-645, limits assumed).
T2 construct: not shown: 8-histidine tag
The experiment in a line: SPR, captured by anti-human Fc.

B1: h62G7-EQ/L1-DV (antibody, V domains shown)
VH: QVQLVQSGAEVKKPGASVKVSCKASGYTFTDYTLHWVRQAPGQGLEWMGGIWPITGGTTYNQKFKGRVTMTRDTSTSTVYMELSSLRSEDTAVYYCARGEAQGSWGQGTLVTVSS
VL: DVVMTQSPLSLPVTLGQPASISCKSSQSLLYSNDKTYTNWFQQRPGQSPRRLIYEVSKLDVGVPDRFSGSGSGTDFTLKISRVEAEDVGVYYCGQDTHFPLTFGGGTKVEIK
notes: Human IgG1
For B1, the koff (usually the rate constant with which the complex falls apart) in assay [1] came to 0.012 s⁻¹. In assay [2], the Kd (in general, the constant that tells how readily two partners part at equilibrium) amounted to 59.9 nM and the kon (in general, a measure of how fast the partners come together) amounted to 200000 M⁻¹ s⁻¹. In assay [3], this molecule showed a Kd of 186 nM, a koff of 0.069 s⁻¹ and a kon of 370000 M⁻¹ s⁻¹. The binding result in assay [4] is “no binding (tested: 1000 nM)”.
